Key:
[1] = tested on: T1, truncated GST-fusion T-bet protein, C-terminal fragment
T1 sequence (Q9UL17 whole entry, species assumed, looked up): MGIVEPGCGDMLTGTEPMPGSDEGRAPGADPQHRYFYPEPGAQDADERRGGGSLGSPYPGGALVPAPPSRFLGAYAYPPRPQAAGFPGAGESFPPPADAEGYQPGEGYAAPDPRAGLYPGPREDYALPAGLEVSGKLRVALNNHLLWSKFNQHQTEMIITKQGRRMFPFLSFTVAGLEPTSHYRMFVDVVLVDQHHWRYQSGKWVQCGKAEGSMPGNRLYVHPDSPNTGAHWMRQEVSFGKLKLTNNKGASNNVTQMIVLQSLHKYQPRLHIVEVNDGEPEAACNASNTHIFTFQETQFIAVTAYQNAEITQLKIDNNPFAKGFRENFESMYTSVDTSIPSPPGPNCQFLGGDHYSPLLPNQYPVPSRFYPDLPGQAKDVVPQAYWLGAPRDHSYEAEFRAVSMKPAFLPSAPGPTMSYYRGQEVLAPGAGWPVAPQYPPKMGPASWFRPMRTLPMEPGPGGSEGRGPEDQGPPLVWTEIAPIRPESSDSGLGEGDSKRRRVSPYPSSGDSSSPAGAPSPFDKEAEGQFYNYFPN

[2] = tested on: T2, truncated GST-fusion T-bet protein, N-terminal fragment
T2 sequence (Q9UL17 whole entry, species assumed, looked up): T1 sequence (Q9UL17 whole entry, species assumed, looked up)

B1: ITK-FLAG (full length IL-2 inducible T cell tyrosine kinase, FLAG-tagged) (enzyme, UniProt Q08881 1-620, looked up, species assumed)
chain: MNNFILLEEQLIKKSQQKRRTSPSNFKVRFFVLTKASLAYFEDRHGKKRTLKGSIELSRIKCVEIVKSDISIPCHYKYPFQVVHDNYLLYVFAPDRESRQRWVLALKEETRNNNSLVPKYHPNFWMDGKWRCCSQLEKLATGCAQYDPTKNASKKPLPPTPEDNRRPLWEPEETVVIALYDYQTNDPQELALRRNEEYCLLDSSEIHWWRVQDRNGHEGYVPSSYLVEKSPNNLETYEWYNKSISRDKAEKLLLDTGKEGAFMVRDSRTAGTYTVSVFTKAVVSENNPCIKHYHIKETNDNPKRYYVAEKYVFDSIPLLINYHQHNGGGLVTRLRYPVCFGRQKAPVTAGLRYGKWVIDPSELTFVQEIGSGQFGLVHLGYWLNKDKVAIKTIREGAMSEEDFIEEAEVMMKLSHPKLVQLYGVCLEQAPICLVFEFMEHGCLSDYLRTQRGLFAAETLLGMCLDVCEGMAYLEEACVIHRDLAARNCLVGENQVIKVSDFGMTRFVLDDQYTSSTGTKFPVKWASPEVFSFSRYSSKSDVWSFGVLMWEVFSEGKIPYENRSNSEVVEDISTGFRLYKPRLASTHVYQIMNHCWKERPEDRPAFSRLLRQLAEIAESGL
modifications: full-length FLAG tag
in vitro kinase assay (32P-ATP, autoradiography) [1]: both the N and C terminal fragments but not the DNA binding domain, could be phosphorylated by the Tec kinases, ITK and RLK | in vitro kinase assay (32P-ATP, autoradiography) [2]: both the N and C terminal fragments but not the DNA binding domain, could be phosphorylated by the Tec kinases, ITK and RLK

— patent publication US20060223116
